B1: NgRΔNT (residues 58 to 473 of mNgR) (receptor, not shown: small tags and cut ends)
chain: SSQRIFLHGNRISHVPAASFQSCRNLTILWLHSNALARIDAAAFTGLTLLEQLDLSDNAQLHVVDPTTFHGLGHLHTLHLDRCGLRELGPGLFRGLAALQYLYLQDNNLQALPDNTFRDLGNLTHLFLHGNRIPSVPEHAFRGLHSLDRLLLHQNHVARVHPHAFRDLGRLMTLYLFANNLSMLPAEVLMPLRSLQYLRLNDNPWVCDCRARPLWAWLQKFRGSSSEVPCNLPQRLADRDLKRLAASDLEGCAVASGPFRPIQTSQLTDEELLSLPKCCQPDAADKASVLEPGRPASAGNALKGRVPPGDTPPGNGSGPRHINDSPFGTLPSSAEPPLTALRPGGSEPPGLPTTGPRRRPGCSRKNRTRSHCRLGQAGSGASGTGDAEGS
notes: In pSecTag2, on COS-7 cells; vector tags as for wtNgR; also called amino terminus deletion
B2: 140-AP (fusion protein containing AP and the 1-40 peptide, residues #1055-1094 of hNogoA) (ligand)
chain: RIYKGVIQAIQKSDEGHPFRAYLESEVAISEELVQKYSNS
modifications: also: fused to alkaline phosphatase (AP), order not given here
notes: not shown: alkaline phosphatase of vector pcAP-6
B3: murine NgR (Nogo-66 receptor) expressed on COS-7 cells (receptor)
chain: CPGACVCYNEPKVTTSCPQQGLQAVPTGIPASSQRIFLHGNRISHVPAASFQSCRNLTILWLHSNALARIDAAAFTGLTLLEQLDLSDNAQLHVVDPTTFHGLGHLHTLHLDRCGLRELGPGLFRGLAALQYLYLQDNNLQALPDNTFRDLGNLTHLFLHGNRIPSVPEHAFRGLHSLDRLLLHQNHVARVHPHAFRDLGRLMTLYLFANNLSMLPAEVLMPLRSLQYLRLNDNPWVCDCRARPLWAWLQKFRGSSSEVPCNLPQRLADRDLKRLAASDLEGCAVASGPFRPIQTSQLTDEELLSLPKCCQPDAADKASVLEPGRPASAGNALKGRVPPGDTPPGNGSGPRHINDSPFGTLPSSAEPPLTALRPGGSEPPGLPTTGPRRRPGCSRKNRTRSHCRLGQAGSGASGTGDAEGS
notes: Library clone or pcDNA3.1 construct transfected into COS-7 cells; GPI-linked protein, cleavage site of the GPI signal not applied here; also called mouse NgR; mNgR
B4: AP-Nogo (His-AP-Nogo, 66 amino acid) (ligand)
chain: HHHHHHIIPVEEENPDFWNREAAEALGAAKKLQPAQTAAKNLIIFLGDGMGVSTVTAARILKGQKKDKLGPEIPLAMDRFPYVALSKTYNVDKHVPDSGATATAYLCGVKGNFQTIGLSAAARFNQCNTTRGNEVISVMNRAKKAGKSVGVVTTTRVQHASPAGTYAHTVNRNWYSDADVPASARQEGCQDIATQLISNMDIDVILGGGRKYMFRMGTPDPEYPDDYSQGGTRLDGKNLVQEWLAKRQGARYVWNRTELMQASLDPSVTHLMGLFEPGDMKYEIHRDSTLDPSLMEMTEAALRLLSRNPRGFFLFVEGGRIDHGHHESRAYRALTETIMFDDAIERAGQLTSEEDTLSLVTADHSHVFSFGGYPLRGSSIFGLAPGKARDRKAYTVLLYGNGPGYVLKDGARPDVTESESGSPEYRQQSAVPLDEETHAGEDVAVFARGPQAHLVHGVQEQTFIAHVMAFAACLEPYTACDLAPPAGTTDAAHPGRIYKGVIQAIQKSDEGHPFRAYLESEVAISEELVQKYSNSALGHVNCTIKELRRLFLVDDLVDSLK
notes: also called AP fused Nogo-66
B5: NgLRR- (residues 306 to 473 of mNgR) (receptor, not shown: small tags and cut ends)
chain: LEGCAVASGPFRPIQTSQLTDEELLSLPKCCQPDAADKASVLEPGRPASAGNALKGRVPPGDTPPGNGSGPRHINDSPFGTLPSSAEPPLTALRPGGSEPPGLPTTGPRRRPGCSRKNRTRSHCRLGQAGSGASGTGDAEGS
notes: In pSecTag2, on COS-7 cells; also called complete LRR domain deleted

For test [1], the target named is B3. Nature of the test: binding to mNgR, data not shown.
The target of test [2] is B4. Put plainly: AP-hNogo-A(1055-1120) binding to transfected COS-7 cells. The method, then:
Forty-eight hours after the transfection, the transfected COS-7 cells were washed with hanks balanced salt solution containing 20 mM sodium HEPES, pH 7.05, and 1 mg/ml bovine serum albumin (BSA) [hereinafter “HBH”]. […] AP-fusion protein was detected as previously described for AP-Sema3A (Takahashi et al., Nature Neurosci. 1:487-493, 1998).
Because the NgRΔ1-2, NgRΔ3-4, NgRΔ5-6, and NgRΔ7-8 deletions remove entire LRR domains it is unlikely that the entire tertiary structure of mNgR is disrupted.

In test [3] the target is T1, AP-NgR (mNgR residues 27-451 fused to 6xHis-placental alkaline phosphatase) (mouse, UniProt P05187 23-511 (human entry)).
T1 construct: Soluble probe in the self-association test
Nature of the test: AP-NgR binding to transfected COS-7 cells.

The target in test [4] is B3. Nature of the test: 140-AP binding to COS-7 cells expressing mNgR, bound/free plot. The protocol: To determine if AP-fused deletion mutants of Nogo-66 bind mouse NgR (“mNgR”), COS-7 cells were transfected with a plasmid encoding the mouse NgR sequence ligated into pcDNA3.1. 48 hours after transfection, cells were washed with HBH (Hanks balanced salt solution containing 20 mM sodium Hepes, pH 7.05, and 1 mg ml⁻¹ bovine serum albumin) and then incubated with condition medium containing one of the AP-fusion proteins described above for 2 hours at 37° C. Cells were then washed, fixed, and left in HBH at 67° C. for 14-16 h to inactivate endogenous AP. AP-fusion protein binding to NgR expressing COS-7 cells was detected with the substrates NBT and BCIP (FIG. 13b).
FIG. 14b graphically depicts the binding of 140-AP to COS-7 cells expressing mNgR as measured as a function of 140-AP concentration.

Test [5] deals with B4. Put plainly: AP-fusion binding to COS-7 cells expressing mouse NgR.
Test [6] addresses B4. Put plainly: AP-Nogo binding to COS-7 cells transfected with the mouse NgR clone. From the text:
A Nogo binding assay was developed which utilizes a method widely used in examining semaphorin and ephrin axonal guidance function (Flanagan & Vanderhaeghen, (1998) Annu. Rev. Neurosci. 21, 309-345; Takahashi et al., (1999) Cell 99, 59-69). It involves fusing a secreted placental alkaline phosphatase (AP) moiety to the ligand in question to provide a biologically active receptor binding agent which can be detected with an extremely sensitive colorimetric assay. For Nogo, an expression vector was created encoding a signal peptide, a His6 tag for purification, AP and the 66 amino acid active domain of Nogo. The fusion protein can be purified from the conditioned medium of transfected cells in milligram amounts (FIG. 5). This protein is biologically active as a growth cone collapsing agent, with an EC₅₀ of 1 nM. […] Binding is blocked by GST-Nogo and by the antagonistic 25 amino acid peptides, consistent with competitive binding to a neuronal receptor site.
This assay was utilized for expression cloning of a NgR. Pools of a mouse adult brain cDNA expression library representing 250,000 independent clones were transfected into non-neuronal COS-7 cells. […] Single cDNA clones encoding a Nogo biding site were isolated by sib-selection from each of the two positive pools. […]

Test [7] concerns the target T2, AP (alkaline phosphatase alone) (UniProt P05187 23-511).
T2 construct: Control without Nogo residues; also called AP alone
Put plainly: AP binding to COS-7 cells transfected with the mouse NgR clone. The text has this: This assay was utilized for expression cloning of a NgR. Pools of a mouse adult brain cDNA expression library representing 250,000 independent clones were transfected into non-neuronal COS-7 cells. […] Single cDNA clones encoding a Nogo biding site were isolated by sib-selection from each of the two positive pools. The two independently isolated clones are identical to one another except for a 100 bp extension of the 5′ untranslated region in one clone. […] Furthermore, GST-Nogo displaces AP-Nogo from these sites.

In test [8] the target is T3, Nogo binding sites (axonal Nogo receptors) on chick dorsal root ganglion neurons (chick).
T3 construct: Target is defined only by the cells that carry it; also called neuronal receptor site
Put plainly: AP-fusion ligand binding to dissociated neurons, Scatchard analysis. The protocol: Purified protein was subjected to SDS-PAGE and stained for total protein with CBB or immunoblotted with anti-Nogo antibodies (anti-Nogo). Molecular weight markers of 200, 116, 97, 65 and 45 kDa are shown at left, and the migration of AP-Nogo at right. (b) is a photograph of dissociated chick E12 dorsal root ganglion neurons that were incubated with 10 nM AP-Nogo or 10 nM AP-Nogo+160 nM GST-Nogo for sixty minutes at 23° C. The cells were washed, fixed and incubated at 60° C. in order to inactivate endogenous AP. Bound AP-Nogo was detected by incubation with nitro blue tetrazolium. Note the intense neuronal staining by AP-Nogo that is displaced by unlabeled ligand. (c) is a graph displaying experimental data where the potency of AP-Nogo and GST-Nogo in E12 chick dorsal root ganglion growth cone collapse assays was assessed as described in the Example section. […] The means±s.e.m. calculated from five to eight determinations are illustrated. (d) is a graph displaying experimental data where the binding of 10 nM AP-Nogo to chick E12 dorsal root ganglion neurons was assessed alone, or in the presence of 100 nM GST-Nogo or in the presence of 4 μM Pep2, which was quantified from experiments as in (b) by the method described in the Example section. The means±s.e.m. calculated from eight determinations are shown. […]

In test [9] the target is T3, Nogo binding sites (axonal Nogo …). Nature of the test: cell-based or functional assay.

Where no end group is shown, it is not given here.

Usually Kd stands for the equilibrium constant for the complex coming apart. Low values mean a tighter complex, high ones a looser complex.

IQKSDEGHPFRAYLESEVAISEELVQKYSNS [peptide having residues 10-40 of hNogoA(#1055-1120)]: the binding result in test [1] is “no binding”.

As for B1, the binding result in test [2] and in test [3] was “no binding” throughout.

Take B2: the Kd in test [4] turned out to be 8 nM.

B3: the dissociation constant (Kd) in [5] was around 7 nM; in test [6], around 3 nM. In addition, the binding result in [7] is recorded as “no binding”.

Take B4: in [8], binding was put at a Kd of 3 nM. Further, the “growth cone collapse, chick E12 dorsal root ganglion (EC50)” value in [9] was found to be 1 nM.

B5: the binding result in test [2] and in [3] was “no binding” each time.

The values are drawn from patent US20020077295A1 (YALE UNIVERSITY, published 2002).
